± gives the uncertainty stated by the source.

A short description of this series: amyloid nucleation score (Sup35N fusion, yeast selection) (log enrichment); library NNK3; higher = more nucleation; inactive = no reads after selection. In short, it runs like this:
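Libraries of peptides of 20 random codons fused to Sup35N were expressed in psi-negative yeast and induced 24 hours with 100 μM copper sulfate. Selection was 7 days at 30°C on medium lacking adenine and uracil, and plasmid inserts were Illumina-sequenced before and after selection. Nucleation score is the DiMSum log enrichment of output over input reads, centred on the mode score of non-aggregating sequences, and sequences with under 100 input reads were left out.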
Take LFLMIFNARNCVRYGIEGPS: the amyloid nucleation score entry was “inactive”.
The figure for LFLSDKLPTFSRLNKCMLGV is -1.31 ± 1.9.
LFMKRLFLSWFSMVVICGAP had an amyloid nucleation score of 0.362 ± 0.71.
Regarding LFNSRMCMPRFASASNLACL, the amyloid nucleation score result was “inactive”.
With LFQKKFILQVYNCLFSYYFN, the amyloid nucleation score turned out to be 1.18 ± 0.096.
The figure for LFTWKCDLGSRRAKGSGLGS is 1.42 ± 0.13; for LFVLELVRIWVTYNWCSVSF it is “inactive”.
Take LFYAVSFQRYQANVFVVRGD: the amyloid nucleation score entry was “inactive”.
LGFLNWSRQGGV showed an amyloid nucleation score of 0.947 ± 0.25.
With LGIAPDHMSCSGVNRKCGYS, the amyloid nucleation score result was “inactive”.
The entry for LGKPASSTQSMWNSFVYWLP is “inactive”; for LGKRVGCNCICAPRSAGDGI it is “inactive”; for LGRKIRFFGYSGWGCMIREY it is “inactive”.
Consider LGSCCLLYYYAKTVMNMFSK, for which the amyloid nucleation score result is “inactive”.
With LGSDTPLKCVLSTMRMLRTG, the amyloid nucleation score result was “inactive”.
In turn, LGVHWNPFIWVSSDARQNSR registered an amyloid nucleation score of -0.089 ± 0.96.
On to LGVSLKGNYAYWFTLIWSDV, for which the amyloid nucleation score entry was “inactive”.
As to LGYTQSVTVMRLMSQYKKAG, the amyloid nucleation score is -0.334 ± 0.55.
Take LHGCTEITKGNYLPNNAVD: the amyloid nucleation score result was “inactive”.
As for LHGHTWSWSLDWLSYMTAVQ, the amyloid nucleation score result is “inactive”.
Take LHHFSAIPH: the amyloid nucleation score result was “inactive”.
As to LHHMHYSLKGS, the amyloid nucleation score entry was “inactive”.
For LHPCEYALM, the amyloid nucleation score is -1.4 ± 2.5.
For LHQCRDKL, the amyloid nucleation score entry is “inactive”.
LHVLPEQARTPRVTVPVFSP showed an amyloid nucleation score of -0.339 ± 1.1.
On to LIAFA, for which the amyloid nucleation score amounted to 2.53 ± 0.069.
For the substance LIARALFNSKWQDTSLSL, the amyloid nucleation score entry is “inactive”.
Take LIAYRVGHSGSAQYSSTCGW: the amyloid nucleation score turned out to be 1.04 ± 0.13.
The substance LICIQCWFYDSYHTQQLWGL had an amyloid nucleation score of 2.16 ± 0.056.
For LICNCHPRESSDPTFLCGLG, the amyloid nucleation score result was “inactive”.
In turn, LICVYVWVHCLMNPYHAINR yielded an amyloid nucleation score of 0.199 ± 0.16.
Regarding LIDWTDNRYPYRHHHFCPNA, the amyloid nucleation score result is “inactive”.
For the substance LIEWYFDN, the amyloid nucleation score entry is “inactive”.
In the case of LIFRRCLCNSSCYDLIAGRG, the amyloid nucleation score entry was “inactive”.
Regarding LIGLMWFVMWFFMARMREIN, the amyloid nucleation score entry was “inactive”.
The value for LIIVMFPAVCIVFDFNFTVF was “inactive”.
The value for LILSSCVKGPVSCRPM was “inactive”.
In the case of LILVCSSGRAIMKRAPCKFR, the amyloid nucleation score result was “inactive”.
The value for LIMLFHSWMSTRWYGVVSNS was “inactive”; that for LINKFRWPTPNECLVPVFQD was “inactive”.
For the substance LINVPDGSSSKLSDMV, the amyloid nucleation score entry was “inactive”.
For the substance LIRQRLDRLVQHFVDFRVFF, the amyloid nucleation score result was “inactive”.
LIVGKNNVPMFTSNKFLVFS: the amyloid nucleation score was -0.508 ± 0.8.
In the case of LIWFGGGPSRWSM, the amyloid nucleation score was -0.117 ± 1.1.
Consider LIWQGCV, for which the amyloid nucleation score entry is “inactive”.
For the substance LIYTGSAIIINRIWE, the amyloid nucleation score amounted to 2.17 ± 0.08.
Consider LKDAHQWIYLW, for which the amyloid nucleation score was -0.779 ± 0.88.
With LKFFVYLLNLYEDFLPVRFS, the amyloid nucleation score result was “inactive”.
On to LKGKP, for which the amyloid nucleation score entry was “inactive”.
Regarding LKHCQMGVVTSSYLMWLVGT, the amyloid nucleation score entry is “inactive”.
LKIWLRSYPYPLTGQKQRPK: the amyloid nucleation score entry is “inactive”.
As to LKQDVKTAVFFFGVD, the amyloid nucleation score came to 1.1 ± 0.15.
In the case of LKSMLLSMRSIIEYCQQMVG, the amyloid nucleation score entry is “inactive”.
The value for LKTTDLLPQVTCPHLCILFL was 0.808 ± 0.23.
In turn, LKWCFFCCN displayed an amyloid nucleation score of 2.54 ± 0.065.
For the substance LKYEERSGWWSLGSGVCGVV, the amyloid nucleation score result is “inactive”.
The substance LLDKVLSEPKTSQDRSENVA had an amyloid nucleation score of -0.696 ± 1.1.
With LLEIPNSRDGFHRGSTVGDL, the amyloid nucleation score result was “inactive”.
In the case of LLFAYLMRMRISVHIWVRGT, the amyloid nucleation score entry is “inactive”.
The value for LLFMYSDMTYTWCIFYGELW was “inactive”.
As for LLFQMVHLTCVMYLLVSSTL, the amyloid nucleation score entry is “inactive”.
The value for LLGSSFFIRLFWTSSSFAAK was “inactive”; that for LLGTEIWGCRRISHSGVMRW was -0.009 ± 0.43.
The value for LLGWCCSDNPDRRKEY was “inactive”; that for LLHFVHNSSSMLVRRREETG was 0.262 ± 0.39; that for LLHRTWVFNSELPWCRYVLK was “inactive”.
As for LLIGNY, the amyloid nucleation score entry was “inactive”.
With LLIKAAFGKMVRCKFRLIEW, the amyloid nucleation score is -0.454 ± 1.4.
Take LLIRTSLVGEIPLSVSVGCL: the amyloid nucleation score result was “inactive”.
LLLPIS: the amyloid nucleation score entry is “inactive”.
On to LLLWSAIIYK, for which the amyloid nucleation score entry was “inactive”.
Take LLLYLN: the amyloid nucleation score result is “inactive”.
The entry for LLNRDI is “inactive”; for LLNSM it is “inactive”; for LLPLFHNVIIGNCLFGCEPP it is 1.62 ± 0.11.
For LLRIPGF, the amyloid nucleation score entry was “inactive”.
On to LLSILTWVSIYRRCFSFTAR, for which the amyloid nucleation score is -0.758 ± 0.88.
As to LLTKSLNPYMMGCSSSIMQC, the amyloid nucleation score result is “inactive”.
In the case of LLTYHTSGYSCWSEG, the amyloid nucleation score result is “inactive”.
LLVAYPHYAGFCTAVSSKSG: the amyloid nucleation score entry was “inactive”.
In the case of LLVSQLRYYWTATRNKFIF, the amyloid nucleation score entry is “inactive”.
LLVTQGVYS registered an amyloid nucleation score of 1.17 ± 0.12.
LLYRWVGFHLIKLSVNAWLS showed an amyloid nucleation score of -1.01 ± 2.4.
Take LMGTQVVFDDTDPYTEKGLL: the amyloid nucleation score entry is “inactive”.
In the case of LMIEGLSDIHVLMAVSPERG, the amyloid nucleation score entry is “inactive”.
With LMKMKRFLQLWTIGDGASKS, the amyloid nucleation score is 1.81 ± 0.09.
On to LMLDFSIGRSPGDNAVICRH, for which the amyloid nucleation score result is “inactive”.
Turning to LMLGYLKYLYGAANRICYRS, the amyloid nucleation score entry is “inactive”.
Regarding LMPCALFSGVYEAGRHGSFL, the amyloid nucleation score was determined as 0.462 ± 0.34.
In the case of LMYLTCPPRGDSTFPKVIRQ, the amyloid nucleation score entry was “inactive”.
With LMYVS, the amyloid nucleation score entry is “inactive”.
Regarding LNDDLCSRVFWVYEYHECQV, the amyloid nucleation score result was “inactive”.
As for LNEFIKYLDICKFFSCSGRN, the amyloid nucleation score turned out to be 1.61 ± 0.1.
In the case of LNFPQMSYP, the amyloid nucleation score entry was “inactive”.
Consider LNGRYSLLWR, for which the amyloid nucleation score result is “inactive”.
The value for LNIIP was “inactive”; that for LNILF was 0.826 ± 0.11; that for LNILIFFCFYGVWKIWKIIS was -0.665 ± 1.3.

The values are drawn from the supplement of paper PMC12042874.
